Experimental findings from US20050106653A1 are described below.

For data set [1], the target named is GST fusion protein containing amino acids 449-664 of rat IRS-1 (rIRS-1 449-664), no PKC pretreatment (rat) (UniProt P35570). In words: cell-based or functional assay.
In data set [2] the target is rIRS-1 449-664 GST fusion protein preincubated with PKC from rat brain (PKC-rb), then tyrosine phosphorylated by insulin receptor (rat) (UniProt P35570). In words: cell-based or functional assay.
Data set [3] concerns the target rIRS-1 449-664 GST fusion protein preincubated with PKC-ζ, then tyrosine phosphorylated by insulin receptor (rat) (UniProt P35570). In words: cell-based or functional assay.
The target in data set [4] is rIRS-1 449-664 S570A GST fusion protein preincubated with PKC-ζ, then tyrosine phosphorylated by insulin receptor (rat) (UniProt P35570). In words: cell-based or functional assay.
Data set [5] concerns the target rIRS-1 449-664 S612A GST fusion protein preincubated with PKC-ζ, then tyrosine phosphorylated by insulin receptor (rat) (UniProt P35570). In words: cell-based or functional assay.
Data set [6] has as its target regulatory p85α subunit of bovine PI 3-kinase (bovine) (UniProt P23727). In words: SPR competition: 100 nM p85α with soluble peptide over the same peptide immobilised.
The target is the same in data set [7]. In words: SPR (Biacore) competition: 100 nM p85α preincubated with soluble peptide, injected over the same peptide immobilised; two site competition fit, first value.
For data set [8] the target is unchanged. In words: SPR (Biacore) competition: 100 nM p85α preincubated with soluble peptide, injected over the same peptide immobilised; two site competition fit, second value. Background: Surface plasmon resonance follows binding to a sensor surface in real time, without labels.
Data set [9] concerns the target rIRS-1 449-664 S570A GST fusion protein preincubated with PKC-ζ, then tyrosine phosphorylated by insulin receptor (rat) (UniProt P35570). In words: GST pull-down and immunoblot; against the insulin-stimulated control without PKC-ζ set as 100%. (In general: In western blotting, separated proteins are transferred to a membrane and probed.)
Data set [10] deals with rIRS-1 449-664 S612A GST fusion protein preincubated with PKC-ζ, then tyrosine phosphorylated by insulin receptor (rat) (UniProt P35570). The description is as above.
The target of data set [11] is rIRS-1 449-664 GST fusion protein preincubated with PKC from rat brain (PKC-rb), then tyrosine phosphorylated by insulin receptor (rat) (UniProt P35570). In words: GST pull-down and immunoblot; against insulin-stimulated rIRS-1 449-664 without PKC set as 100%.
The target of data set [12] is rIRS-1 449-664 GST fusion protein preincubated with PKC-ζ, then tyrosine phosphorylated by insulin receptor (rat) (UniProt P35570). In words: GST pull-down and immunoblot; against insulin-stimulated rIRS-1 449-664 without PKC-ζ set as 100%.
Data set [13] has as its target T1, GST fusion protein containing amino acids 449-664 of rat IRS-1 (rIRS-1 449-664), no PKC pretreatment.
T1 chain: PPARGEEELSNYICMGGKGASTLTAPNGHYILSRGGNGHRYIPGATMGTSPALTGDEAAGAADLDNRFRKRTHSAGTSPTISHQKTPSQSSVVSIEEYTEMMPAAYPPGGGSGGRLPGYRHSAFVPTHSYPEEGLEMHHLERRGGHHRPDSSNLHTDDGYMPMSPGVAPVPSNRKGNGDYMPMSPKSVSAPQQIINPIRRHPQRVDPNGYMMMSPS

Chain of regulatory p85α subunit of bovine PI 3-kinase (bovine) (P23727 whole entry): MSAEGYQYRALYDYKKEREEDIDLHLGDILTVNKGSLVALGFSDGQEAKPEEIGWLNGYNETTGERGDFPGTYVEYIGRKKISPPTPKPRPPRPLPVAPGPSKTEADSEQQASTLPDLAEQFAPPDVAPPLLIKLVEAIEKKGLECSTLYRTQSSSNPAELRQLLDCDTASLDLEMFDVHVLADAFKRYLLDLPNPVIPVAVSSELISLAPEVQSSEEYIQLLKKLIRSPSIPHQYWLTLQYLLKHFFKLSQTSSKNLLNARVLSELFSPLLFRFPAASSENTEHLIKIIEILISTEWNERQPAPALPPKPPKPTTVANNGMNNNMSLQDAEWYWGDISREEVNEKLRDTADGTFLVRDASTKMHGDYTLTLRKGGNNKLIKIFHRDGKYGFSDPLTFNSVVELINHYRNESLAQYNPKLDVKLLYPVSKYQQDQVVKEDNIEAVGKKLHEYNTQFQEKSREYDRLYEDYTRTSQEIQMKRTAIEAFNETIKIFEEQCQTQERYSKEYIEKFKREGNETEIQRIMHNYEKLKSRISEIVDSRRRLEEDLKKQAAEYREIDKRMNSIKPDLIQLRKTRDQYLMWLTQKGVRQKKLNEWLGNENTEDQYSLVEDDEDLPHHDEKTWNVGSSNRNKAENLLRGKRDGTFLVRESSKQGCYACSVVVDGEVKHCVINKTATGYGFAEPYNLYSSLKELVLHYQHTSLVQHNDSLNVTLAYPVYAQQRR

With “insulin receptor, WGA-purified from rat liver, insulin-stimulated and autophosphorylated (from UniProt P15127 27-1383)”, the insulin-stimulated tyrosine phosphorylation of rIRS-1^449-664, fold over basal in [1] came to 8.8 fold. In data set [2], this molecule came in with a reduction of insulin-stimulated tyrosine phosphorylation of 27%. Also, in data set [3], the inhibition of tyrosine phosphorylation worked out at 46%. In addition, the reduction of tyrosine phosphorylation by IR after PKC-ζ pretreatment in [3], in data set [4] and in data set [5] was 30 to 40% throughout.
Consider “IRS-1 peptide pY608 (DDGpYMPMSPGV), amino acids 605 to 615 of rat IRS-1 with phosphotyrosine 608”, for which the peptide concentration for complete inhibition in data set [6] was determined as 10 µM. Also, the half-maximal inhibitory concentration (IC50) came out at 260 nM in data set [7] and 16600 nM in data set [8].
For “regulatory p85α subunit of bovine PI 3-kinase (from UniProt P23727 1-724)”, the p85α binding, % of control in data set [9] is 43 % of control; in [10] it was 28 % of control. In data set [11], the inhibition of the association of p85α came to 49%. In data set [12], this molecule displayed an inhibition of p85α binding of 81%.
Regarding “IRS-1 peptide pY608-pS612 (DDGpYMPMpSPGV), amino acids 605 to 615 of rat IRS-1 with phosphotyrosine 608 and phosphoserine 612”, in [6], the peptide concentration for complete inhibition was found to be 10 µM. Moreover, the IC50 in [7] was 150 nM; in [8] it was 2880 nM.

B1: recombinant human protein kinase C-ζ (protein)
chain: MPSRTGPKMEGSGGRVRLKAHYGGDIFITSVDAATTFEELCEEVRDMCRLHQQHPLTLKWVDSEGDPCTVSSQMELEEAFRLARQCRDEGLIIHVFPSTPEQPGLPCPGEDKSIYRRGARRWRKLYRANGHLFQAKRFNRRAYCGQCSERIWGLARQGYRCINCKLLVHKRCHGLVPLTCRKHMDSVMPSQEPPVDDKNEDADLPSEETDGIAYISSSRKHDSIKDDSEDLKPVIDGMDGIKISQGLGLQDFDLIRVIGRGSYAKVLLVRLKKNDQIYAMKVVKKELVHDDEDIDWVQTEKHVFEQASSNPFLVGLHSCFQTTSRLFLVIEYVNGGDLMFHMQRQRKLPEEHARFYAAEICIALNFLHERGIIYRDLKLDNVLLDADGHIKLTDYGMCKEGLGPGDTTSTFCGTPNYIAPEILRGEEYGFSVDWWALGVLMFEMMAGRSPFDIITDNPDMNTEDYLFQVILEKPIRIPRFLSVKASHVLKGFLNKDPKERLGCRPQTGFSDIKSHAFFRSIDWDLLEKKQALPPFQPQITDDYGLDNFDTQFTSEPVQLTPDDEDAIKRIDQSEFEGFEYINPLLLSTEESV
Consider B1, for which, in data set [13], the “32P incorporation, SDS-PAGE and autoradiography” value is recorded as “a prominent phosphorylation of rIRS-1^449-664 by PKC became detectable”; the “phosphopeptide mapping by HPLC of wild type and S570A” value is recorded as “serine 570 of IRS-1 is a novel phosphorylation site targeted by PKC-ζ”.

In general, IC50 refers to the concentration that gives 50% inhibition. Lower therefore signals inhibition by little substance.
